In the nanobody polyreactivity screen of Harvey et al. (2022):

Assay: yeast display, Sf9 membrane polyspecificity reagent, FACS + sequencing; frameworks hold sequencing errors
In short: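 In a synthetic yeast display library (Saccharomyces cerevisiae BJ5465), nanobody expression was induced with galactose for 36–48 hours. FACS gates were set low and high (top ~1%) using anti-HA fluorescence for expression and streptavidin fluorescence for binding of the Sf9 membrane reagent. Each polyreactivity label is drawn from the gate of origin.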

Row | Sequence | polyreactivity (PSR sort gate)
1 | QVQLVESGGGLVQAGGSLRLSCAASGSTFLHYAMGWYRQAPGKERELVAAISFSGVRTYYADSVKGRFTISRDNAKNTVYLQLNSLKPEDNAVYYCDADGHHADYDYLGQGTQVTVSS | low polyreactivity
2 | QVQLVESGGGLVQAGGSLRLSCAASGSTFLINAMGWYRQAPGKEREFVAAITSSGGTTYYADSVKGRFTISRDNAKNTVYLQMNSLKPEDTAVYYCAAVSRSRREKKFDYWGQGTQVTVSS | low polyreactivity
3 | QVQLVESGGGLVQAGGSLRLSCAASGSTFLINAMGWYRQAPGKERELVAAITGRGGSTYYADSVKGRFTISRDNAKNTVYLQMNSLKPEDTAVYYCNAERLGTGYRYDYWGQGTQVTVSS | high polyreactivity
4 | QVQLVESGGGLVQAGGSLRLSCAASGSTFLKNAMGWYRQAPGKERELVAAISYSTTRTYYAVSVKGRFTISRDNAKNTVYLQINSLKPEDTAVYYCAARYDRSSKRNYWGQGTQVTVSS | low polyreactivity
5 | QVQLVESGGGLVQAGGSLRLSCAASGSTFLKYAMGWYRQAPGKERELVAAISRSGTSTYYADSVKGRFTISRDNAKNTVYLQMNSLKPEDTAVYYCAARWIRSNTQYDYWGQGTQVTVSS | high polyreactivity
6 | QVQLVESGGGLVQAGGSLRLSCAASGSTFLNYAMGWYRQAPGKERELVAAISGRGGRTYYADSVKGRFTISRDNAKNTVYLQMNSLKPEDTAFYYCAARIWVSYTSYDYWGQGTQVTVSS | high polyreactivity
7 | QVQLVESGGGLVQAGGSLRLSCAASGSTFLNYAMGWYRQAPGKERELVAAISGRGGRTYYADSVKGRFTISRDNAKNTVYLQMNSLTPEDTAVYYCAARKWVSYTSYDYWGQGTQVTVSS | high polyreactivity
8 | QVQLVESGGGLVQAGGSLRLSCAASGSTFLQNAMGWYRQAPGKEREFVAAISYTGANTYYADSVKGRFTISRDNAKNTVYLQMNSLKPEDTAVYYCAAYARGVRRYRRYDYWGQGTQVTVSS | high polyreactivity
9 | QVQLVESGGGLVQAGGSLRLSCAASGSTFLQNAMGWYRQAPGKERELVAAISRSGGSTYYADSVKGRFTISRDNAKNTVYLQMNSLKPEDTAVYYCAAGGRRYDDDYWGQGTQVTVSS | high polyreactivity
10 | QVQLVESGGGLVQAGGSLRLSCAASGSTFLRYAMGWYRPAPGKERELVAAISWSGGTTYYADSVKGRFTISRDNAKNTVYLQMNSLKPEDTAVYYCNTASWRAQYYYWGQGTQVTVSS | high polyreactivity
11 | QVQLVESGGGLVQAGGSLRLSCAASGSTFLRYAMGWYRQAPGKERELVAGIRYSGGTYYADSVKGRFTISRDNAKNTVYLQMNSLKPEDTAVYYCAAYWKLGGFRYGYWGQGTQVTVSS | high polyreactivity
12 | QVQLVESGGGLVQAGGSLRLSCAASGSTFLSNAMGWYRQAPGKERELVASIDWSGVSTYYADSVKGRFTISRDNAKNTVYLQMNSLNPEDTAVYYCAAEQVQSWDAYYQVEEYDYWGQGTQVTVSS | low polyreactivity
13 | QVQLVESGGGLVQAGGSLRLSCAASGSTFLSYAMGWYRQAPGKERELVAAITSGGRTYYADSVKGRFTISRDNAKNTVYLQMNSLKPEDTAVYYCAAVTGRFGYWGQGTQVTVSS | high polyreactivity
14 | QVQLVESGGGLVQAGGSLRLSCAASGSTFLTNAMGWYRQAPGKERELVVAIRTSGGSTYYADSVKGRFTISRDNAKNTVYLQMNSLKPEDTAFYYCAASYRRRRFSEYYYWGQGTQVTVSS | high polyreactivity
15 | QVQLVESGGGLVQAGGSLRLSCAASGSTFLTNVMGWYRPAPGQERELVAAITIGGSTNYADSVKGRFTISRDNAKNTVYLQMNILKPEDTAVYYCATDIRRKPRYVDYEYWGQGTQVTVSS | low polyreactivity
16 | QVQLVESGGGLVQAGGSLRLSCAASGSTFLVYAMGWYRQAPGKERELVAAITQIDGSTYYADSVKGRFTISRDNAKNTVYLQMNSLKPEDTAVYYCAARYFWTYEYDYWGQGTQVTVSS | low polyreactivity
17 | QVQLVESGGGLVQAGGSLRLSCAASGSTFLYNAMGWYRQAPGKEREFVAAISGSGGTTYYADSVKGRFTISRDNAKNTVYLQMNSLNPEDTAVYYCAVSQSWYWYYASDYWGQGTQVTVSS | low polyreactivity
18 | QVQLVESGGGLVQAGGSLRLSCAASGSTFLYVMGWYRQAPGKERELVAAISESGGSTYYADSVKGRFTISRDNAKNTLYLQMNSLKPEDTAVYYCAADLPTGLQYRYYRVDYWGQGTQVTVSS | low polyreactivity
19 | QVQLVESGGGLVQAGGSLRLSCAASGSTFLYYAMGWYRQAPGKERELVAAITSSGGRTYFADSVKGRFTISRDNAQNTVYLQMNSLQPEDTAVYYCARGWPRREQSEYDYWGQGTQVTVSS | high polyreactivity
20 | QVQLVESGGGLVQAGGSLRLSCAASGSTFLYYDMGWYRQAPGKERELVATITRGGSTYYADSVKGRFTISRDNAKNTVYLQMNSLKPEDTAVYYCAAYRWGILSAYYYAWYGYWGQGTQVTVSS | low polyreactivity
21 | QVQLVESGGGLVQAGGSLRLSCAASGSTFLYYTMGWYRQAPGKERELVAAITSGGDTNYADSVKGRFTISRDNAKNTVYLQINSLKPEDTAVYYCNAEYTWSGTKIYTYKYDYWGQGTQVTVSS | low polyreactivity
22 | QVQLVESGGGLVQAGGSLRLSCAASGSTFNAYAMGWYRQAPGKERELVAAISSSGGRTHYADSVKGRFTISRDNAKNTVYLQMNSLKPEDTAVFYCNVGKRFVRNDYWGQGTQVTVSS | high polyreactivity

Row | Sequence | polyreactivity (PSR sort gate)
23 | QVQLVESGGGLVQAGGSLRLSCAASGSTFNDNAMGWYRQAPGKERELVAGISYSGGSTYYADSVKGRFTISRDNAKNTVYLQMNSLKPEDTAVYYCNADVTGLSQFGYWGQGTQVTVSS | low polyreactivity
24 | QVQLVESGGGLVQAGGSLRLSCAASGSTFNDYVMGWYRQAPGKERELVAAISRSGGSTYYADSVKGRFTISRDNAKNTVYLQMNSLKPEDTAVYYCAAASPGPWRYDYWGQGTQVTVSS | high polyreactivity
25 | QVQLVESGGGLVQAGGSLRLSCAASGSTFNFNAMGWYRQAPRKERELVAAISSSGGSTYYADSVKGRFTISRDNAKNTVYLQMNSLKPEDTAVYYCATVRRKSPLYYYWGQGTQVTVSS | high polyreactivity
26 | QVQLVESGGGLVQAGGSLRLSCAASGSTFNFYAMGWARQAPGKERELVAAIRQSSGRTYYADSVKGRFTISRDNAKNTVYLQMNSLKPEDTAVYYCNARVPRYNGGSTMEYWGQGTQVTVSS | high polyreactivity
27 | QVQLVESGGGLVQAGGSLRLSCAASGSTFNGYVMGWYRQAPGKERELVAAISRSGGSTYYADSVKGRFTISRDNAKNNVYLQMYSLKPEDTAVYSCAKGGYQHYWGQGTQVTVSS | high polyreactivity
28 | QVQLVESGGGLVQAGGSLRLSCAASGSTFNGYVMGWYRQAPGKERELVAAISRSGGSTYYADSVKGRFTISRDNAKNTVYLQMYSLKPEDTAVYYCAKGGYQHYWGQGTQVTVSS | high polyreactivity
29 | QVQLVESGGGLVQAGGSLRLSCAASGSTFNINVMGWYRQAPGKERELVASISTGDITYYADSVKGRFTISRDNAKNTVYLQMNSLKPEDTAVYYCNAEDDLYWWVWYAVGEEYWGQGTQVTVSS | low polyreactivity
30 | QVQLVESGGGLVQAGGSLRLSCAASGSTFNIYAMGCYRQSPGKERELVAAIRSGGSTYYADSVKGRFTISRDNAKNTVYLQMNSLKPEDTAVYYCGAAVKRALDYWGQGTQVTVSS | high polyreactivity
31 | QVQLVESGGGLVQAGGSLRLSCAASGSTFNIYVMGWYRQAPGKERELVAAITTSGRTYYADSVKGRFTISRDNAKNTVYLQMNSLKPEDTAVYYCAAVPVRYRYSYGYYYWGQGTQVTVSS | high polyreactivity
32 | QVQLVESGGGLVQAGGSLRLSCAASGSTFNKYAMGWYRQAPGKERELVAAISSSGGSTYYADSVKGRFTISRDNAKNTVYLQMNSLKPEDTAVYYCNARRTYSVPARRYYYWGQGTQVTVSS | high polyreactivity
33 | QVQLVESGGGLVQAGGSLRLSCAASGSTFNLYAMGWYRQAPGKERELVAAISDGDSSTYYADSVKGRFTISRDNAKNTVYLQMNSLKPEDTAVYYCAADFSVYTEEDDSWGQGTQVTVSS | low polyreactivity
34 | QVQLVESGGGLVQAGGSLRLSCAASGSTFNRNAMGWYRQAPGKERELVAAISWRGDSTSYADSVKGRFTISRDNAKNTVYLQMNSLKPEDTAVSYCAADYYYGQGQPDEDNYWGQGTQVTVSS | low polyreactivity
35 | QVQLVESGGGLVQAGGSLRLSCAASGSTFNRYAMGWYRPAPGKERELVASISWGGGRTYYADSVKGRFTISRDNAKNTVDFQLNSLKPEDTAVYFCATDRYDRHYEVDYWGQGTQVTVSS | low polyreactivity
36 | QVQLVESGGGLVQAGGSLRLSCAASGSTFNSYTMGWYRKAPGKERELVAAITLSGGRTYYADSVKGRFTISRDNAKNTVYLQMNSLKPEDTAVYYCAAYCRASWERDYWGQGTQVTVTS | low polyreactivity
37 | QVQLVESGGGLVQAGGSLRLSCAASGSTFNTNAMGWYRQAPGKERELVAAITWRTGSTYYADSVKGRFTISRDNAKNTVYLQMNSLKPEDTAVYYCAADYFWYRSGRYHYWGQVTQVTVSS | high polyreactivity
38 | QVQLVESGGGLVQAGGSLRLSCAASGSTFNVNAMGWYSQAPGKERELVATISSGGSTNYADSVKGRFTISRDNAKNTVYLQMNSLKPEDTAVYYCAKEYGSIIPYDYWGQGTQVTVSS | low polyreactivity
39 | QVQLVESGGGLVQAGGSLRLSCAASGSTFNVYAMGWYRQAPGKERELVAGIRDSDGSTNYADSVKARFTISRDNAKNTVYLQMNSLKQEDPAVYYCAADLYDINWSVWLDYWGQGTQVTVSS | low polyreactivity
40 | QVQLVESGGGLVQAGGSLRLSCAASGSTFNVYGMGCYRQAPGKERELVAAINRDGITYADSVKGRFTISRDNAKNTVYLQMNSLKPEDTAVYYCAAGYSPYKGSAGYYWGQGTQVTVSS | low polyreactivity
41 | QVQLVESGGGLVQAGGSLRLSCAASGSTFNYNAMGWYRQAPGKERELVAAIRSSDGSTHYADSVKGRFTISRDNAKNTVYLQMNSLKPEDTAVYYCAADYDVWWRDDYWGQGSQVTVSS | low polyreactivity
42 | QVQLVESGGGLVQAGGSLRLSCAASGSTFNYNPMGWYRQAPGKERELVAAISSSGGSTYYADSVKGRFTISRDNAKNTVYLQMNSLKPEDTAVYYCATGGSSRVRTEGDYWGQGTQVTVSS | low polyreactivity
43 | QVQLVESGGGLVQAGGSLRLSCAASGSTFNYYAMGWYRQAHGTERELFAAITYRGGSTYYADSVKGRFTISRDNAKNTVYLHMNLLKPEDTAVYYCNARQVRYMYAQDEGYDYWGLGTQVTVSS | high polyreactivity
